According to the supplement of paper PMC11780869:

Tested on: Bacillus subtilis
Experiment: cleaved RNA product abundance (RNA/gDNA barcode ratio) relative to median wild-type variant (ratio to wild type); higher = more accumulation of the downstream cleavage product
Details: experiment (reporter, strain, medium): exp 2b: truncated aprE reporter, strain BJT200; cleavage site: cggR-gapA (positions -7 to +36 mutated)
Method in brief: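 In LB at 37°C, B. subtilis cultures went from OD600 0.0003 to 0.3. Their chromosomes held barcoded reporter mRNAs, truncated aprE or tetM, with RNase Y cleavage-site windows mutagenized via oligos at a 9% error rate. Cleaved RNA, chosen by gel, was reverse transcribed and barcode-sequenced alongside genomic DNA barcodes with UMI collapsing, giving a per-construct RNA:gDNA ratio scaled to the median construct with the unmutated site. This scaled ratio is termed cleaved product abundance.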

Row | Sequence | cleaved RNA product abundance
1 | ACAGACGAAGGAGCCGCAAAGAAATAATTAAGGGATGAATAATCCCTCAATATAAATATCTCTCACTTATTTAAA | 0.25
2 | ACAGACGAAGGAGCCGCAAAGAAGTTATTAACGGCTGAATAATCCCTCAATATAAATATCTCTCACTTATTTAAA | 0.0646
3 | ACAGACGAAGGAGCCGCAAAGAAGTTATTAAAAGATTAATAATCCCTCAATATAAATATCTCTCACTTATTTAAA | 0.104
4 | ACAGACGAAGGAGCCGCAAAGAAGTTATTAAGGGATGAATAATCCTCCAATATAAATATCTCTCACTTATTTAAA | 0.127
5 | ACAGACGAAGGAGCCGCAAAGATGTTATTAAGGGTTGAATAATCCCTCAATATAAATATCTCTCACTTATTTAAA | 0.251
6 | ACAGACGAAGGAGCCGCAAAGAAGTTATTAAGGGATCAATAATCCCTCAATATAATTATCTCTCACTTATTTAAA | 0.468
7 | ACAGACGAAGGAGCCGCAAAGAAGTTATTAAGGGACGAATAATTCCTCAATATAAATATCTCTCACTTATTTAAA | 0.126
8 | ACAGACGAAGGAGCCGCAAAGAAGTAATTAAGAGATGAATAATCCCTCAATATAAATATCTCTCACTTATTTAAA | 0.0957
9 | ACAGACGAAGGAGCCGCAAAGAAGTTATTAAGGGAAGAATAATCCCTCAAAATAAATATCTCTCACTTATTTAAA | 0.17
10 | ACAGACGAAGGAGCCGCAAAGAAGTTACTAAGGGACGAATAATCCCTCAATATAAATATCTCTCACTTATTTAAA | 0.131
11 | ACAGACGAAGGAGCCGCAAAGAAGTTATTAAGGGATGTATAATCCCTCAAAATAAATATCTCTCACTTATTTAAA | 0.267
12 | ACAGACGAAGGAGCCGCACAGAAGTTATTAAGGGATGAATAATCCTTCAATATAAATATCTCTCACTTATTTAAA | 0.461
13 | ACAGACGAAGGAGCCGCAAAGAAGTTATTAAGGGATGAATGATCCCTCCATATAAATATCTCTCACTTATTTAAA | 0.123
14 | ACAGACGAAGGAGCCGCAAAGAAATTATTAATGTATGAATAATCCCTCAATATAAATATCTCTCACTTATTTAAA | 0.117
15 | ACAGACGAAGGAGCCGCAAAGGAGTTATTAAGGGATAAATAATCCCTCAATATAAATATCTCTCACTTATTTAAA | 0.828
16 | ACAGACGAAGGAGCCGCAAAGAAATGATTAAGGGATGAATAATCCCTCAATATAAATATCTCTCACTTATTTAAA | 0.354

Same assay, conditions: experiment (reporter, strain, medium): exp 4a: truncated aprE reporter, strain BJT201 with 2% xylose (RNase J1 expressed); cleavage site: cggR-gapA (positions -7 to +36 mutated)

Row | Sequence | cleaved RNA product abundance
17 | ACAGACGAAGGAGCCGCAAAGAAGTAATTAAGGGATGAATAATCCCTAAATATAAATATCTCTCACTTATTTAAA | 0.234
18 | ACAGACGAAGGAGCCGCAATGAAGTTATCAAGGGATGAATAATCCCTCAATATAAATATCTCTCACTTATTTAAA | 0.487
19 | ACAGACGAAGGAGCCGCAAAGAAATAATTAAGGGATGAATAATCCCTCAATATAAATATCTCTCACTTATTTAAA | 0.381
20 | ACAGACGAAGGAGCCGCTAAGAAGTTATTAAGGGATGAATATTCCCTCAATATAAATATCTCTCACTTATTTAAA | 0.667
21 | ACAGACGAAGGAGCCGCAAAGAGGTTATTAAGGGATGAATAATCCCTAAATATAAATATCTCTCACTTATTTAAA | 0.386
22 | ACAGACGAAGGAGCCGCAAAGAAGTTATTAACGGCTGAATAATCCCTCAATATAAATATCTCTCACTTATTTAAA | 0.0788
23 | ACAGACGAAGGAGCCGCAAGGAAGTTATTAAGGTATGAATAATCCCTCAATATAAATATCTCTCACTTATTTAAA | 0.101
24 | ACAGACGAAGGAGCCGCTAAGTAGTTATTAAGGGATGAATAATCCCTCAATATAAATATCTCTCACTTATTTAAA | 1.27
25 | ACAGACGAAGGAGCCGCAAAGAAGTTATTAAGGGATGAATATTCCTTCAATATAAATATCTCTCACTTATTTAAA | 0.546
26 | ACAGACGAAGGAGCCGCAAAGAAATTATTAAGGGATGAATAATCCCTCAATTTAAATATCTCTCACTTATTTAAA | 0.153
27 | ACAGACGAAGGAGCCGCAAAGAAGTTATTAAGAGATGAATAATCCCTCTATATAAATATCTCTCACTTATTTAAA | 0.118
28 | ACAGACGAAGGAGCCGCAAAGAAGTTATTAAGGGATGAATAATCCCTCAGTATATATATCTCTCACTTATTTAAA | 0.242
29 | ACAGACGAAGGAGCCGCAAAGAAGTTATTAAGGGATGAATAATTCCTCAATATAAATGTCTCTCACTTATTTAAA | 0.564
30 | ACAGACGAAGGAGCCGCAAGGAAGTTATTAAGGGATGAATAATCCCTCAATATAAAAATCTCTCACTTATTTAAA | 0.35
31 | ACAGACGAAGGAGCCGCACAGAAGTTATTAAGGGATGAATAATCCCTCAATAAAAATATCTCTCACTTATTTAAA | 0.116
32 | ACAGACGAAGGAGCCGCAAAGAAGTTATTAAGGGACGAATAATTCCTCAATATAAATATCTCTCACTTATTTAAA | 0.192
33 | ACAGACGAAGGAGCCGCAAAGAAGTTATTAAGGGAAGAATGATCCCTCAATATAAATATCTCTCACTTATTTAAA | 0.925
34 | ACAGACGAAGGAGCCGCAAATAAGTTATTAAGGGATGAATAATCGCTCAATATAAATATCTCTCACTTATTTAAA | 0.121
35 | ACAGACGAAGGAGCCGCAAAGAAGTTATTAATGGATGAATAATCCCTCAATATAAAGATCTCTCACTTATTTAAA | 0.0975

Row | Sequence | cleaved RNA product abundance
36 | ACAGACGAAGGAGCCGCAAAGAAGTTATTAAGGTATGAATAATCCCTCCATATAAATATCTCTCACTTATTTAAA | 0.0967
37 | ACAGACGAAGGAGCCGCAAAGAAGTTATTAAGGGATGAGTAATCCCTTAATATAAATATCTCTCACTTATTTAAA | 0.601
38 | ACAGACGAAGGAGCCGCAAAGAAGTTATTAAGGGATGAATAATCCCTCAAAATAAAAATCTCTCACTTATTTAAA | 0.393
39 | ACAGACGAAGGAGCCGCAAAGAAGTAATTAAGAGATGAATAATCCCTCAATATAAATATCTCTCACTTATTTAAA | 0.141
40 | ACAGACGAAGGAGCCGCAAAGAAGTTATTAAGGGAAGAATAATCCCTCAAAATAAATATCTCTCACTTATTTAAA | 0.182
41 | ACAGACGAAGGAGCCGCAAAGAAATTATTAAGGGATGAATAATCCATCAAGATAAATATCTCTCACTTATTTAAA | 0.118
42 | ACAGACGAAGGAGCCGCAAAGAAGTTATTAAGGGATGTATAATCCCTCAAAATAAATATCTCTCACTTATTTAAA | 0.344
43 | ACAGACGAAGGAGCCGCACAGAAGTTATTAAGGGATGAATAATCCTTCAATATAAATATCTCTCACTTATTTAAA | 0.469
44 | ACAGACGAAGGAGCCGCAGACAAGTTATTAAGGGATGAATAATCCCTCAATATAAATATCTCTCACTTATTTAAA | 0.844
45 | ACAGACGAAGGAGCCGCAAAGAAGTTATTAAGGTATGCATAATCCCTCAATATAAATATCTCTCACTTATTTAAA | 0.126
46 | ACAGACGAAGGAGCCGCAAATAAGTTATTAAGGGATGAATAAGCCCTCAATATAAATATCTCTCACTTATTTAAA | 0.476
47 | ACAGACGAAGGAGCCGCAAAGAACTTATTAAGGGATGAATAATCCCTCAATATAAATATTTCTCACTTATTTAAA | 0.307
48 | ACAGACGAAGGAGCCGCAAAGAAATTATTAATGTATGAATAATCCCTCAATATAAATATCTCTCACTTATTTAAA | 0.111
49 | ACAGACGAAGGAGCCGCAAAGAATTTATTAAGGGATGAATAATCCCTCAATATAAAAATCTCTCACTTATTTAAA | 0.532
50 | ACAGACGAAGGAGCCGCAAAGGAGTTATTAAGGGATAAATAATCCCTCAATATAAATATCTCTCACTTATTTAAA | 0.789
51 | ACAGACGAAGGAGCCGCAAATAAGTTATTAAGGGATGAATAATCCCTCAATAAAAATATCTCTCACTTATTTAAA | 0.143
52 | ACAGACGAAGGAGCCGCAAAGAAGTGATTAAGGGATGAATAATCCCTCAAAATAAATATCTCTCACTTATTTAAA | 0.258
53 | ACAGACGAAGGAGCCGCAAAGAAATGATTAAGGGATGAATAATCCCTCAATATAAATATCTCTCACTTATTTAAA | 0.457

Same assay, conditions: experiment (reporter, strain, medium): exp 8a: truncated aprE reporter, strain BJT201 with 2% xylose (RNase J1 expressed); cleavage site: glnRA (positions -5 to +31 mutated)

Row | Sequence | cleaved RNA product abundance
54 | CGACATGTCCCGCTTCTTTCATTAATCCGTTACCTACTGTTTTGCTATATACATTTACCTTTTAAGAGGAGGAAT | 0.443
55 | CGACATGTCCCGCTTCTTTCATTAATCCGTTAGCAACTTTTTTGCTATATACATTTTCCTTTTAAGAGGAGGAAT | 0.343
56 | CGACATGTCCCGCTTCTTTCATTAATCCGTTAGCAATTGTTTTGCTATATACATTTACTTTTTAAGAGGAGGAAT | 1.01
57 | CGACATGTCCCGCTTCTTTCATTAATTCGTTAGCAACTGTTTTGCTATATACATTTACCTTTTAAGAGGAGGAAT | 1.11
58 | CGACATGTCCCGCTTCTTTCATTAATCCGTTAGCAACTGTTTTCCTATATACATTTACTTTTTAAGAGGAGGAAT | 0.31
59 | CGACATGTCCCGCTTCTTTCATTAATCCGTTAGGAACTTTTTTGCTATATACATTTACCTTTTAAGAGGAGGAAT | 0.409
60 | CGACATGTCCCGCTTCTTTCATTAATCCGTTAGCAAATGTTTTGATATATACATTTACCTTTTAAGAGGAGGAAT | 0.418
61 | CGACATGTCCCGCTTCTTTCATTAATCCTTTAGCAACTCTTTTGCTATATACATTTACCTTTTAAGAGGAGGAAT | 1.2
62 | CGACATGTCCCGCTTCTTTCATTAACCCGTTACTCACTGTTTTGGAATATACATTTACCTTTTAAGAGGAGGAAT | 0.147
63 | CGACATGTCCCGCTTCTTTCATTAACCCGTTAGCAACTGTTTTGCTATATAGATTTACCTTTTAAGAGGAGGAAT | 0.53
64 | CGACATGTCCCGCTTCTTTCATTAAACCGTTAGCAACTGTTTAACTATATACATTTACCTTTTAAGAGGAGGAAT | 0.444
65 | CGACATGTCCCGCTTCTTTCATTACTCCGTTAGCAACTGTTTTGCTATCTACATTTACCTTTTAAGAGGAGGAAT | 0.0823
66 | CGACATGTCCCGCTTCTTTCATTAATCCGTTAACAACTGTTTTGCTATATAGATTTACCTTTTAAGAGGAGGAAT | 0.201
67 | CGACATGTCCCGCTTCTTTCATTAATTCGTTAGCAACTGTTTTGCTATATATATTTACCTTTTAAGAGGAGGAAT | 1.55
68 | CGACATGTCCCGCTTCTTTCATTATTCCGTTAGCAACTTTTTTGCTATATACATTTACCGTTTAAGAGGAGGAAT | 2.31
69 | CGACATGTCCCGCTTCTTTCATTACTCCGTTAGCAACTGTTTTGCTATATACATTTACCATTTAAGAGGAGGAAT | 1.3
70 | CGACATGTCCCGCTTCTTTCATTAATCCGTTATCAACTGTTTTGCTATATACATTTACATTTTAAGAGGAGGAAT | 0.366
71 | CGACATGTCCCGCTTCTTTCATTAATCCGGTATCAACTGTTTTGCTATATACATTTACCTTTTAAGAGGAGGAAT | 0.375
